Measurements taken from US20070190603A1 (MIT, published 2007).

Biological target: the molecule itself
Experiment: self-assembly into a macroscopic membrane in DMEM; phase-contrast microscopy and Congo Red staining
Procedure: The peptides were initially dissolved in water (5 mg/ml) or in 23% acetonitrile (10 mg/ml). A volume of 5-10 microliters of the dissolved peptides were applied to the DMEM medium, PBS or water. The formation of the membrane was first observed under a phase-contrast microscope and then, by the naked eye after staining with Congo Red.

| Protein | binding result |
| --- | --- |
| Ac-AEAEAKAKAEAEAKAK-NH2 (Self-assembling amphiphilic peptide) [EAK16 peptide, Ac-HN-AEAEAKAKAEAEAKAK-CONH2] | binds |
| Ac-AEAKAEAEAKAK-NH2 [EAK12 peptide, Ac-HN-AEAKAEAEAKAK-CONH2] | binds |
